According to PMC7264293, “Multi-site-mediated entwining of the linear WIR-motif around WIPI β-propellers for autophagy” (Nature Communications, 2020):

target: GB1-tagged ATG2A short fragment (1374-1404), the WIR-peptide (UniProt Q2TAZ0); assay: ITC
Sequence (Q2TAZ0 1374-1404): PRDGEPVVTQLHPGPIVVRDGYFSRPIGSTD

WIPI3-Δloop, Q5MNZ6 Y65A, sequence (Q5MNZ6 other isoform, or with tags, fused parts or gaps Y65A | mutant): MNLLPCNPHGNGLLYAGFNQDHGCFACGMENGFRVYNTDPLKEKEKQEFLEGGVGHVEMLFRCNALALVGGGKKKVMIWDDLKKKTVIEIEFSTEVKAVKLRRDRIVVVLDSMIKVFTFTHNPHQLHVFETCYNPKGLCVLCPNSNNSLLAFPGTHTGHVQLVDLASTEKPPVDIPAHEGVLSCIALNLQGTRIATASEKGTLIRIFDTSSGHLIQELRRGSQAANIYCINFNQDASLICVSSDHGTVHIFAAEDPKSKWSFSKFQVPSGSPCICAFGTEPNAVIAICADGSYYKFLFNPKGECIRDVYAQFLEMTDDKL
WIPI3-Δloop, Q5MNZ6 I96A, sequence (Q5MNZ6 other isoform, or with tags, fused parts or gaps I96A | mutant): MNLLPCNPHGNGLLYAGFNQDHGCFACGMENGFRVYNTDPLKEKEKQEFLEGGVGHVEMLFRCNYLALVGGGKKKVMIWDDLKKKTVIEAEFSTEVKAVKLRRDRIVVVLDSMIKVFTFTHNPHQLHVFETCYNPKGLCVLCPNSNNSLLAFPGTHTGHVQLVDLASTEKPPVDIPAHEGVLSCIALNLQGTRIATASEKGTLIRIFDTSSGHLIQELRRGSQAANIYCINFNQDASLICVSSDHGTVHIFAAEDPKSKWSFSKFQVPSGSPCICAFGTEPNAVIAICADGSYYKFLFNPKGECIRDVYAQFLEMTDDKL
WIPI3-Δloop, Q5MNZ6 F98A, sequence (Q5MNZ6 other isoform, or with tags, fused parts or gaps F98A | mutant): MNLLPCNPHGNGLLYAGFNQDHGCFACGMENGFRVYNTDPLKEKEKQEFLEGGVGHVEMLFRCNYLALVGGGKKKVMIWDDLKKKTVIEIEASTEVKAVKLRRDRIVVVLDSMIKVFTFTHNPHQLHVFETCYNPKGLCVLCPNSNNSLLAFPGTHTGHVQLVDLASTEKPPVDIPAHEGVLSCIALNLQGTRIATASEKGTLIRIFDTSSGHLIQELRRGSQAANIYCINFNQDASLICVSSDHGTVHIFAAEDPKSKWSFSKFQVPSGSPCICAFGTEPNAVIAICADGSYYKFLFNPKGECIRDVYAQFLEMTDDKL
WIPI3-Δloop, Q5MNZ6 R62A, sequence (Q5MNZ6 other isoform, or with tags, fused parts or gaps R62A | mutant): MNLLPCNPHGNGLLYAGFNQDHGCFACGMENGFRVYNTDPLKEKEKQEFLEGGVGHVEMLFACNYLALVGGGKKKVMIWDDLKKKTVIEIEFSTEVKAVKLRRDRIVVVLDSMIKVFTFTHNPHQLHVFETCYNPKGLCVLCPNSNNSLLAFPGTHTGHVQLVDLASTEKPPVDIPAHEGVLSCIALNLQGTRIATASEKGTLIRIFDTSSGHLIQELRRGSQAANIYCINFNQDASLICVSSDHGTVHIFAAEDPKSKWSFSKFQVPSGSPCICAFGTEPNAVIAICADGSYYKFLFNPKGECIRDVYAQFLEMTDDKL
WIPI3-Δloop, Q5MNZ6 R109Q, sequence (Q5MNZ6 other isoform, or with tags, fused parts or gaps R109Q | mutant): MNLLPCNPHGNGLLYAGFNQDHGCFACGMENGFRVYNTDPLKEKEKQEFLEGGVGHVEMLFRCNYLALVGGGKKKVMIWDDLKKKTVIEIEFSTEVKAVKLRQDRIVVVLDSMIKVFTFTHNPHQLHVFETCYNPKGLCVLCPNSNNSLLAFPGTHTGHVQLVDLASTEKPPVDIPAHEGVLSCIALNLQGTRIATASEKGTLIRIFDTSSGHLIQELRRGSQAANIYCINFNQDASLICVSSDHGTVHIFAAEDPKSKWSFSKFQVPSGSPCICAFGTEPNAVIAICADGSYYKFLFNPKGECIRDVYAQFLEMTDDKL
WIPI3-Δloop, Q5MNZ6 F125A, sequence (Q5MNZ6 other isoform, or with tags, fused parts or gaps F125A | mutant): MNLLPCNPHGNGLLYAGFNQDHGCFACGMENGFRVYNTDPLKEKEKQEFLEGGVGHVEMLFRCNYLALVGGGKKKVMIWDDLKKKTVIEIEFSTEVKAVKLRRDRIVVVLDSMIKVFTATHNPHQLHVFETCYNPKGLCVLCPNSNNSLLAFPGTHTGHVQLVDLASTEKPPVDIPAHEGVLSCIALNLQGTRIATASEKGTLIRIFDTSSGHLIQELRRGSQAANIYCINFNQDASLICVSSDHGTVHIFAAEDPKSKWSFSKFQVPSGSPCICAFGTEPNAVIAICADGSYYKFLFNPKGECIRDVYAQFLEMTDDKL

Substance | Kd
WIPI3-Δloop, Q5MNZ6 F98A | 31.6 µM
WIPI3-Δloop, Q5MNZ6 R109Q | 52.6 µM
WIPI3-Δloop, Q5MNZ6 Y65A | 76.1 µM

The remaining substances from weak to strong by Kd, led by results:

Kd | Substance
244 µM | WIPI3-Δloop, Q5MNZ6 F125A
72.5 µM | WIPI3-Δloop, Q5MNZ6 R62A
40 µM | WIPI3-Δloop, Q5MNZ6 I96A
